Data from patent US20060269536A1 (UNIVERSITE DE LAUSANNE, published 2006).
Residue numbers refer to the chain shown, from its start.

B1: rACT8.20 (designed binder)
chain: MRGSHHHHHHSRHPNSPLDEENLTQENQDRGTHVDLGLASANVDFAFSLYKQLVLKAPDKNVIFSPLSISTALAFLSLGAHNTTLTEILKGLKFNLTETSEAEIHQSFQHLLRTLNQSSDELQLSMGNAMFVKEQLSLLDRFTEDAKRLYGSEAFATDFQDSAAAKKLINDYVKNGTRGKITDLIKDLDSQTMMVLVNYIFFKAKWEMPFDPQDTHQSRFYLSKKKWVMVPMMSLHHLTIPYFRDEELSCTVVELKYTGNASALFILPDQDKMEEVEAMLLPETLKRWRDSLEFREIGELYLPKFSISRDYNLNDILLQLGIEEAFTSKADLSGITGARNLAVSQVVHKAVLDVFEEGTEASAATAVKITLRSRAVETRTIVRFNRPFLMIIVPTDTQNIFFMSKVTNPKQA
B2: rACT6.2 (designed binder)
chain: B1 chain with L371R, R374I, A375D
notes: Recombinant human α1-antichymotrypsin variant, RSL P3-P'3 = TRRSID; N-terminal His tag, E. coli TG1; also called MD62; MD 62
B3: rACT6.7 (designed binder)
chain: B1 chain with T370K, S373T, R374T, A375L
B4: rACT6.1 (designed binder)
chain: B1 chain with T370M, L371T, R374N
notes: N-terminal His tag, E. coli TG1; also called MD61; MD 61
B5: ACT5.18 (designed binder)
chain: B1 chain with L371E, S373V, R374S, A375P
B6: rACT8.3 (designed binder)
chain: B1 chain with T370R, L371G, R374E, A375L
B7: rACTWT (recombinant wild type α1-antichymotrypsin) (other, human)
chain: HHHHHHNSPLDEENLTQENQDRGTHVDLGLASANVDFAFSLYKQLVLKAPDKNVIFSPLSISTALAFLSLGAHNTTLTEILKGLKFNLTETSEAEIHQSFQHLLRTLNQSSDELQLSMGNAMFVKEQLSLLDRFTEDAKRLYGSEAFATDFQDSAAAKKLINDYVKNGTRGKITDLIKDLDSQTMMVLVNYIFFKAKWEMPFDPQDTHQSRFYLSKKKWVMVPMMSLHHLTIPYFRDEELSCTVVELKYTGNASALFILPDQDKMEEVEAMLLPETLKRWRDSLEFREIGELYLPKFSISRDYNLNDILLQLGIEEAFTSKADLSGITGARNLAVSQVVHKAVLDVFEEGTEASAATAVKITLLSALVETRTIVRFNRPFLMIIVPTDTQNIFFMSKVTNPKQA
notes: Serpin; Expressed in E. coli TG1 from pQE-9 with an N-terminal His tag; also called ACTWT (LL↓SA); wild type rACT
B8: rACTPCI (MD CI) (designed binder)
chain: B1 chain with L371F, R374A, A375L

target: T1, human neutrophil elastase (HNE) (human, UniProt P08246 30-247, limits assumed); assay: cell-based or functional assay
T1 sequence (looked up): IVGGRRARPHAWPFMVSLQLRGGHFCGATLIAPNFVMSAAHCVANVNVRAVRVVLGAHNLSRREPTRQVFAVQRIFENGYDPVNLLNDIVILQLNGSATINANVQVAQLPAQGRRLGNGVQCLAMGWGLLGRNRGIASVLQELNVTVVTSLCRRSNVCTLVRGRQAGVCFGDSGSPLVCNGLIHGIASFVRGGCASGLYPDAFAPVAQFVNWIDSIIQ

Row | Binder | Inhibition % (residual enzyme activity, fluorescent substrate) [%]
1 | B1 | 30
2 | B2 | 0
3 | B3 | 0
4 | B4 | 60
5 | B5 | 0
6 | B6 | 0
7 | B7 | 15

target: human glandular kallikrein hK2 (human, UniProt P20151 25-261); assay: cell-based or functional assay

Row | Binder | Inhibition % (residual enzyme activity, fluorescent substrate) [%]
8 | B1 | 95
9 | B2 | 100
10 | B3 | 100
11 | B4 | 100
12 | B5 | 73
13 | B6 | 100
14 | B7 | 0

target: urokinase plasminogen activator (uPA) (UniProt P00749 21-431, limits assumed); assay: cell-based or functional assay

Row | Binder | Inhibition % (residual enzyme activity, fluorescent substrate) [%]
15 | B1 | 0
16 | B2 | 0
17 | B3 | 0
18 | B4 | 0
19 | B5 | 0
20 | B6 | 0
21 | B7 | 0

target: T2, hK3 (PSA) (human, UniProt P07288 25-261); assay: cell-based or functional assay
T2 sequence (P07288 25-261 limits assumed): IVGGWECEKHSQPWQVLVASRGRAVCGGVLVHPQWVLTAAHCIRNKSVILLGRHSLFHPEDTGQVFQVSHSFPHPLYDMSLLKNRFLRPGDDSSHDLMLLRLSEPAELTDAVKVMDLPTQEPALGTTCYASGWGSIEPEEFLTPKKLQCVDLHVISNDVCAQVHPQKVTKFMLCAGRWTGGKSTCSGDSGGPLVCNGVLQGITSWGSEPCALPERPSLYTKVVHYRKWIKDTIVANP

Row | Binder | Inhibition % (residual enzyme activity, CFP-TFRSA-YFP substrate, 90 min at 37°) [%]
22 | B2 | 0
23 | B3 | 0
24 | B4 | 0
25 | B5 | 0
26 | B6 | 0
27 | B7 | 80

target: human plasma kallikrein (PK) (human, UniProt P03952 20-638); assay: cell-based or functional assay
Sequence (P03952 20-638 limits assumed): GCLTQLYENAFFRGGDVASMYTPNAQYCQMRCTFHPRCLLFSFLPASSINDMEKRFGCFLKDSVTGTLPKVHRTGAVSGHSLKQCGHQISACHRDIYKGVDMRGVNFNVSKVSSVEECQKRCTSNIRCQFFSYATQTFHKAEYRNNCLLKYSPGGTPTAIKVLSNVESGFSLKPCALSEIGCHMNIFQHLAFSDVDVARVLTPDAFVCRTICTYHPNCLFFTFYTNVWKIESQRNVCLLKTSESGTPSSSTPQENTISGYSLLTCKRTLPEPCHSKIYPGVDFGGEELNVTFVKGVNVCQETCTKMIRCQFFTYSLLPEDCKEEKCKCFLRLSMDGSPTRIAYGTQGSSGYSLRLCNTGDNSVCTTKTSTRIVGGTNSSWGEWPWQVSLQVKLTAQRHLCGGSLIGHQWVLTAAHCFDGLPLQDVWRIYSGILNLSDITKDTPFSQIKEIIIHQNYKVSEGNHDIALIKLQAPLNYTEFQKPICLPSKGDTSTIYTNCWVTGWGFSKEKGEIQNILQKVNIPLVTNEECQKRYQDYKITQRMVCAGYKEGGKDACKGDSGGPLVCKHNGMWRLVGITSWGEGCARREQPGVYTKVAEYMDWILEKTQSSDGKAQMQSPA

Row | Binder | Inhibition % (residual enzyme activity, fluorescent substrate) [%]
28 | B1 | 54
29 | B2 | 100
30 | B3 | 36
31 | B4 | 100
32 | B5 | 0
33 | B6 | 0
34 | B7 | 0

target: human kallikrein hK1 (human, UniProt P06870 25-262); assay: cell-based or functional assay
Sequence (P06870 25-262): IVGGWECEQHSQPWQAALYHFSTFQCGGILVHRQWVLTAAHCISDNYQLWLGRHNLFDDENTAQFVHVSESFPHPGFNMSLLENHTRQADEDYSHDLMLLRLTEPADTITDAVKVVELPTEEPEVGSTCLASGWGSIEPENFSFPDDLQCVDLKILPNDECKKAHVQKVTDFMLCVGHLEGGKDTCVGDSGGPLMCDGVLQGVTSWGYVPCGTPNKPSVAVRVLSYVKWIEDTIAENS

Row | Binder | Inhibition % (residual enzyme activity, fluorescent substrate) [%]
35 | B1 | 0
36 | B2 | 0
37 | B3 | 0
38 | B4 | 0
39 | B5 | 0
40 | B6 | 0
41 | B7 | 0

target: T3, Human chymotrypsin (Chtr) (human, UniProt P17538 19-263); assay: cell-based or functional assay
T3 sequence (P17538 19-263): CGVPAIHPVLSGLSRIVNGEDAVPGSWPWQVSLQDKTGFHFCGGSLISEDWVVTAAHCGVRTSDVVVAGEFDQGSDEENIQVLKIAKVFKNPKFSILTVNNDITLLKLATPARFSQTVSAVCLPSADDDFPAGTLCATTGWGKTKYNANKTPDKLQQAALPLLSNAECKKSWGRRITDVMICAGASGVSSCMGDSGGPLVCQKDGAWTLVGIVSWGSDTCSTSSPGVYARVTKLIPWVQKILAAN

Row | Binder | Inhibition % (residual enzyme activity, fluorescent substrate) [%]
42 | B1 | 66
43 | B2 | 0
44 | B3 | 0
45 | B4 | 0
46 | B5 | 0
47 | B6 | 0
48 | B7 | 100

target: Trypsin; assay: inhibitory profile of MDCI; method as in example 1

Row | Binder | kon [M⁻¹ s⁻¹]
49 | B8 | 1.13e+06

target: T3, Human chymotrypsin (Chtr); assay: residual protease activity against [I]o/[E]o, linear regression, x intercept
Description: The stoichiometry of inhibition (SI) values were determined for the inhibition of rACTWT and its variants with hK2 and different other enzymes. An initial test was made with a molar excess of rACT (100 fold) over hK2, PSA, hK1, chymotrypsin (Chtr), plasma kallikrein (PK), urokinase (uPA) and human neutrophile elastase (HNE) enzymes. The reaction was carried out for 30 min at 25° C. (90 min at 37° C. for PSA) in reaction buffer (50 mM Tris pH 7.5, 150 mM NaCl, 0.05% Triton X-100, 0.01% BSA) and residual enzyme activity was measured by adding fluorescent substrates (Z-Phe-Arg-AMC for hK1, hK2 and PK, Suc-Ala-Ala-Pro-Phe-AMC for Chtr, Z-Gly-Gly-Arg-AMC for uPA, MeOSuc-Ala-Ala-Pro-Val-AMC for HNE, and CFP-TFRSA-YFP for PSA). Activity of enzyme in presence of inhibitors was compared to uninhibited reaction. For reactions where an inhibition was observed, SI was determined by incubating different concentrations of recombinant serpins. […]
In order to determine the SI values of all the recombinant variants, Applicants have incubated hK2 (5 nM) with different concentrations (6.25-500 nM) of rACT_{8.20} (x), rACT_{6.2} (□), rACT_{8.3} (Δ), rACT_{6.7} (⋄), rACT_{6.1} ( ), rACT_{5.18} (∘), rACTWT (+), at 25° C. for 30 min in reaction buffer. […] The SI was determined using linear regression analysis to extrapolate the I/E ratio (i.e. the x intercept).

Row | Binder | SI (stoichiometry of inhibition)
50 | B7 | 2

target: T2, hK3 (PSA); assay: Western blot of hK3-ACT complex, anti-His antibody (FIG. 6B)
Description: For each variants of ACT, 1 μg of inhibitor was incubated with 100 ng of either hK2 or hK3 during 1 hour at 37° C. under physiological conditions.

Row | Binder | binding result
51 | B2 | no binding
52 | B4 | no binding
